In paper PMC4671958:

Target: DNA polymerase theta helicase domain (Polθ-HLD), residues 1–894 (human), O75417
Assay: crystal structure; apo protein, 3.55 Å, four copies in the asymmetric unit; crystallized in 0.2 M NaCl, 0.1 M HEPES (pH 7.0), 20% PEG 6K, 10% ethylene glycol
Conditions: remark: other sources report otherwise

B1: DNA polymerase theta helicase domain (Polθ-HLD), residues 1–894, O75417 1-894 (domain or fragment)
chain: MNLLRRSGKRRRSESGSDSFSGSGGDSSASPQFLSGSVLSPPPGLGRCLKAAAAGECKPTVPDYERDKLLLANWGLPKAVLEKYHSFGVKKMFEWQAECLLLGQVLEGKNLVYSAPTSAGKTLVAELLILKRVLEMRKKALFILPFVSVAKEKKYYLQSLFQEVGIKVDGYMGSTSPSRHFSSLDIAVCTIERANGLINRLIEENKMDLLGMVVVDELHMLGDSHRGYLLELLLTKICYITRKSASCQADLASSLSNAVQIVGMSATLPNLELVASWLNAELYHTDFRPVPLLESVKVGNSIYDSSMKLVREFEPMLQVKGDEDHVVSLCYETICDNHSVLLFCPSKKWCEKLADIIAREFYNLHHQAEGLVKPSECPPVILEQKELLEVMDQLRRLPSGLDSVLQKTVPWGVAFHHAGLTFEERDIIEGAFRQGLIRVLAATSTLSSGVNLPARRVIIRTPIFGGRPLDILTYKQMVGRAGRKGVDTVGESILICKNSEKSKGIALLQGSLKPVRSCLQRREGEEVTGSMIRAILEIIVGGVASTSQDMHTYAACTFLAASMKEGKQGIQRNQESVQLGAIEACVMWLLENEFIQSTEASDGTEGKVYHPTHLGSATLSSSLSPADTLDIFADLQRAMKGFVLENDLHILYLVTPMFEDWTTIDWYRFFCLWEKLPTSMKRVAELVGVEEGFLARCVKGKVVARTERQHRQMAIHKRFFTSLVLLDLISEVPLREINQKYGCNRGQIQSLQQSAAVYAGMITVFSNRLGWHNMELLLSQFQKRLTFGIQRELCDLVRVSLLNAQRARVLYASGFHTVADLARANIVEVEVILKNAVPFKSARKAVDEEEEAVEERRNMRTIWVTGRKGLTEREAAALIVEEARMILQQDLVEM
- stoichiometry N: 4
